Reference: patent publication US20040215400A1, “Computational design of a water-soluble analog of a protein, such as phospholamban and potassium channel KcsA” (priority 2003, published 2004)

Experiments:
[1] = Sedimentation equilibrium analytical ultracentrifugation, monomer-nmer self-association; format: physicochemical
Procedure: Sedimentation equilibrium was used to rigorously determine the association state and thermodynamics of the observed oligomers. Because WSPLB eluted as a single homogenous species from size exclusion chromatography, and its CD spectra were concentration independent above 100 μM, we initially determined its association state at 113 μM centrifuged at 35,000 rpm. In these conditions, WSPLB sedimented as a single species with a molecular weight of approximately 31,600+/−200, or a pentamer (n=5.04). […] The monomer-pentamer dissociation constant was determined to be 6.34×10^−21 M^4 with a P(1/2)=6 μM, where P(1/2) is the midpoint of the monomer-nmer isotherm in total peptide concentration. […]
Measurements were made at 25° C. using a Beckman XL-1 analytical ultracentrifuge. […] Concentrations were monitored using absorption optics at a wavelength of 275 nm and equilibrium was assessed by the absence of significant change in radial concentration gradients in scans separated by a few hours. […] An uncertainty was estimated of about +10% in the calculated molecular weight of the protein, arising largely from uncertainty in the partial specific volume, which is calculated from a weight average of individual amino acids. […] Association constants were determined similarly, keeping the monomer molecular weight and oligomer number constant, and allowing the equilibrium constant to float. […]

[2] = Thermal denaturation monitored by circular dichroism at 222 nm; format: physicochemical; set-up: ΔCp: unit not given here
Procedure: All of the peptides were thermally unfolded, monitoring the loss of signal at 222 nm by CD spectroscopy with increasing temperature. Scans taken with 60 s signal averaging time and equilibration of 4 min at each temperature. Concentrations of peptide are 50 and 125 μM. Data were fit to a two-state model (theoretical curves are shown) with a monomer-pentamer equilibrium. […] Previously it has been shown that global fitting of such curves obtained at multiple protein concentrations can be used to confirm the aggregation state and obtain highly accurate measures of the free energy of association. Application of these procedures to WSPLB allows an excellent fit for a monomer-pentamer equilibrium, providing the thermodynamic parameters described in Table 1. The predicted midpoint concentration for the monomer-pentamer isotherm was 4.9 μM (30 kcal/mol) at 25° C., in good agreement with the value of 6 μM (28 kcal/mol) obtained from sedimentation equilibrium.
Conditions are identical to those in FIG. 2. Scans taken with 60 s signal averaging time and equilibration of 4 min at each temperature. Concentrations of both peptides are 50 μM. […] At these concentrations the ΔTm was approximately 8° C., and the ΔΔGunf was 4 kcal/mol. In Table 1, parameters are shown for full length WSPLB and phosphorylated pWSPLB, including ΔGunf, ΔHunf, and ΔCp, all at 1 M standard state, and a reference temperature of 350 K. Tm at 50 μM is also shown. ACP was a global fitting parameter for WSPLB, but held fixed for pWSPLB at the same value as WSPLB.
Thermal unfolding curves of WSPLB (residues 21-52) from 2 to 94° C. are illustrated in FIG. 7. Scans taken with 60 s signal averaging time and equilibration of 4 minutes at each temperature. Conditions and peptide concentrations were identical to those in FIG. 2. […] At higher temperatures a main transition is observed, which depends on the concentration of the peptide. […] In contrast, the main transition corresponds to dissociation of the oligomer to unfolded monomer. The increase in stability of WSPLB (residues 21-52) to WSPLB, also seen in sedimentation equilibrium, is apparent in the increase in Tm which is 76° C. for WSPLB (residues 21-52) versus 55° C. for WSPLB at 50 μM.
All CD spectra were collected on an AVIV 62DS spectropolarimeter, using a 1 mm pathlength quartz cuvette. CD spectra of WSPLB and pWSPLB were collected in 10 mM sodium phosphate pH 7.5, 50 mM NaCl, 1 mM tris (2-carboxyethyl)-phosphine hydrochloride (TCEP-HCl), and 1 mM EDTA while those for WSPLB (residues 21-52) in the same buffer substituted with 50 mM MOPS pH 7. Each wavelength scan from 200-260 nm is an average of four scans with 4 second averaging time per data point at 25° C. All thermal melting curves were collected in the same buffers as their corresponding wavelength scans, with 60 second averaging time and 4 minute equilibration time. The elipticity was measured at 222 nm as a function of increasing temperature (2-94° C.). WSPLB and pWSPLB melting curves were analyzed with Igor Pro® 3.16 (available from WaveMetrics, Inc., Oswego, Oreg. 97035), assuming a two-state unfolding pathway.
where [θ] is mean residue elipticity (deg cm^2 dmol^−1), T° is the midpoint of the transition, ΔH° is the van't Hoff enthalpy at the midpoint (kcal mol^−1), ΔS° is the standard state entropy (kcal mol^−1 K^−1), and ΔCP is the change in heat capacity over the temperature range of the experiment (kcal mol^−1 K^−1). In fitting, the floating parameters are the initial and final [θ] values, the slopes of the folded and unfolded baselines, ΔH, ΔCP, and Tm. The parameters were globally fit to three equilibria schemes, from monomer-tetramer to hexamer, using data collected at 49 and 126 μM. Only the monomer-pentamer scheme provided an adequate fit to the data. ΔCP was held constant for pWSPLB at the value obtained for WSPLB.

WSK-3 = WSK-3 (Streptomyces lividans, UniProt P0A334, L24D/W26E/G43A/Q58A/T61S/R64D/L81R/V93E/S102V/G104A, form not given)
native channel = native channel (Streptomyces lividans, UniProt P0A334); details: read-out: reported Kdiss, Heginbotham et al. 1999; cited from earlier work
[3] = global fit, monomer-pentamer, 1 M standard state, reference temperature 350 K

WSK-3, sequence (P0A334 whole entry L24D/W26E/G43A/Q58A/T61S/R64D/L81R/V93E/S102V/G104A, looked up): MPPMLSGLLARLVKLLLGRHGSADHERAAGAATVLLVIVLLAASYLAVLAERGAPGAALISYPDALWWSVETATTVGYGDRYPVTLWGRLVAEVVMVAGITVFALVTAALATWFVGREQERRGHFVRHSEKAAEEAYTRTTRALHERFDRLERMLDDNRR
native channel, sequence (P0A334 whole entry): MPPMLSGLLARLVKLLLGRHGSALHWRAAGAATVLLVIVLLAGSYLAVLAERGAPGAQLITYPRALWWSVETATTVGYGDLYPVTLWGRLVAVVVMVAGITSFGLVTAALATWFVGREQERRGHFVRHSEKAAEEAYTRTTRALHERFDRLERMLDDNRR

Molecule	free energy of association (monomer-pentamer) ([1]; from sedimentation equilibrium)	P(1/2), midpoint of the monomer-nmer isotherm in total peptide concentration ([1]; monomer-pentamer, sedimentation equilibrium, 25° C.)	increase of stability by phosphorylation [2]	Tm at 50 μM ([2]; 50 μM peptide, CD 222 nm, 2-94° C.)	predicted midpoint concentration for the monomer-pentamer isotherm ([2]; at 25° C., from global fit of thermal denaturation)	free energy of association (monomer-pentamer) ([2]; at 25° C., from thermal denaturation)	ΔGunf [2, 3]	ΔHunf [2, 3]	ΔCp ([2]; global fitting parameter for WSPLB, held fixed for pWSPLB at the WSPLB value)	competition with AgTx2-DNP for binding to WSK-3 (WSK-3; AgTx2-DNP 10 μM, WSK-3 10 μM tetramer, relative to KCl control)	Kd (WSK-3; read-out: Kdiss for TEA, from TEA concentration for 50% total toxin dissociation, assuming Kdiss≦2 μM for AgTx2-DNP)	Kd (native channel)
WSPLB: computationally designed water-soluble analog of phospholamban, full length, expressed in E. coli (MDKVQYLTRSAIRRAISTIEMPQQARQNLQNLYINRCLREICQELKEIRAMLK; WSPLB)	28 kcal/mol	6 µM	-0.9 kcal/mol/monomer	55 °C	4.9 µM	30 kcal/mol	19.2 kcal/mol	229 kcal/mol	1.9	–	–	–
CC[N+](CC)(CC)CC.[Cl-] [TEA, tetraethylammonium chloride]	–	–	–	–	–	–	–	–	–	induces dissociation of AgTx2-DNP from WSK-3 in a concentration-dependent manner	≤ 80 mM	3.2 to 22 mM
